Laboratory results published in patent US20220033501A1 (SHANGHAI PHARMAEXPLORER, published 2022).

T1: human TIM-3 extracellular domain protein with hFc tag (hTIM-3-hFc) (human, UniProt Q8TDQ0 22-200)
T1 construct: not shown: human IgG Fc fragment (hFc) of the pCpC vector
T1 sequence: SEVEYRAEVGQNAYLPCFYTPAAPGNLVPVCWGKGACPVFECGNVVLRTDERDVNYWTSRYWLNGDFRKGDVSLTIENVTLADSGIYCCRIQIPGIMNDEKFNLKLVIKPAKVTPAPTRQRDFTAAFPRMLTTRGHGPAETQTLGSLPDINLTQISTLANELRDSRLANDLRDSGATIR

T2: monkey TIM-3 extracellular domain protein with hFc tag (cTIM-3-hFc) (monkey)
T2 construct: not shown: human IgG Fc fragment (hFc) of the pCpC vector
T2 chain: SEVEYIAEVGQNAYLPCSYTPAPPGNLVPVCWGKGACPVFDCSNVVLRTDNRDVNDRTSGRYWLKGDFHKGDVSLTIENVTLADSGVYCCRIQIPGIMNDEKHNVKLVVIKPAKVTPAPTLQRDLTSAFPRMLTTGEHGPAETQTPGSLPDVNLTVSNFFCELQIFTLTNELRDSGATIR


Tests used:
[1] = target: T1, human TIM-3 extracellular domain …; assay: ELISA, coated human TIM-3 ECD protein, 0.0007 nM antibody
[2] = target: T2, monkey TIM-3 extracellular domain …; assay: ELISA, coated monkey TIM-3 ECD protein, 0.0007 nM antibody
[3] = target: T2, monkey TIM-3 extracellular domain …; assay: ELISA, coated monkey TIM-3 ECD protein, 0.0001 nM antibody
[4] = target: T1, human TIM-3 extracellular domain …; assay: ELISA, coated human TIM-3 ECD protein, 0.0667 nM antibody
[5] = target: T2, monkey TIM-3 extracellular domain …; assay: ELISA, coated monkey TIM-3 ECD protein, 0 nM antibody
[6] = target: T1, human TIM-3 extracellular domain …; assay: ELISA, coated human TIM-3 ECD protein, 66.667 nM antibody
[7] = target: T2, monkey TIM-3 extracellular domain …; assay: ELISA, coated monkey TIM-3 ECD protein, 0.6667 nM antibody

OD450 [1]	OD450 [2]	OD450 [3]	OD450 [4]	OD450 [5]	OD450 [6]	OD450 [7]	Binder
0.11	0.18	0.17	1.22	0.16	3.06	3.15	57F4E5 fully human TIM-3 antibody (human IgG4, kappa) (antibody, V domains shown) VH: EVQLVESGGGLVQPGGSLRLSCAASGFTFSSYWMSWVRQAPGKGLEWVANIKQDGSEKYYVDSVKGRFTISRDSAKNSLYLQMNSLRAEDTAMYFCARDSNFFDYWGQGTLVTVSS VL: ETVMTQSPATLSVSPGERATLSCRASQSVSSNLAWYQRKPGQAPRLLIYFSSTRATGIPARFSGSGSGTEFTLTISSLQSEDFAVYYCQQYNNWPLTFGGGTKVEIK
0.1	0.15	0.14	1.28	0.13	2.77	3.1	134H3G6 fully human TIM-3 antibody (human IgG4, kappa) (antibody, V domains shown) VH: EVQLVESGGGLVQPGGSLRLSCAASGFTFSNSWMTWVRQAPGKGLEWVANIKQAGTEKYYVDSVKGRFTISRDNAKNSLYLQMNSLRAEDTAVYYCNSGSNYFDYWGQGTLVTVSS VL: EIVMTQSPATLSVSPGERATLSCRARQNFYSNLAWYQQKPGQAPRLLIYGASTRATGIPARFSGSGSGTEFTLTISSLQSEDFAVYYCQQYNNWPLTFGGGTKVEIK
0.1	0.15	0.13	1.29	0.13	3.08	3.05	215A8F2 fully human TIM-3 antibody (human IgG4, kappa) (antibody, V domains shown) VH: QVQLQQWGAGLLKPSETLSLTCTVYGGSFSGYYWNWIRQPPGKGLEWLGEINHSGSTNYNPSLKRRVTISVDTSKNQFSLKLSSVTAADTAVYYCARVYYYGPFDFWGQGTLVTVSS VL: not shown
0.11	0.14	0.13	1.69	0.13	3.02	2.46	7A4F10 fully human TIM-3 antibody (human IgG4, kappa) (antibody, V domains shown) VH: EVQLLESGGGLVQPGGSLRLSCAASGFTFRTHLISWVRQAPGKGLEWVAAITGSGGSTYYADSVKGRFIISRDNSKNTLFLQMNSLRAEDTAVYYCAKDGGSGSYDDFWGQGTLVTVSS VL: ETVLTQSPVTLSLSPGERATLSCRASQSVGSYLAWYQQKPGQAPRLLIYDASNRATGIPARFSGSGSGTDFTLTISSLEPEDFAVYYCQQRSNWPPTFGQGTKVEIK
0.11	0.15	0.14	1.57	0.13	2.78	3.16	18D2H2 fully human TIM-3 antibody (human IgG4, kappa) (antibody, V domains shown) VH: EVQLVESGGDLVQPGGSLRLSCAASGFTFSTYWMTWVRQAPGRGLEWVANIKQDGSAKYYVDSVKGRFTLSRDDAKNSLYLQMNSLRAEDTAVYYCARGSNWFDYWGQGTLVTVSS VL: ETVMTQSPATLSVSPGERATLSCRANQNVYSNLAWYQQKPGQAPRLLIYDASTRATGFPARFSGSGSGTEFTLTISSLQSEDFAVYYCQQYNNWPLTFGGGTKVEIK
0.11	0.19	0.17	1.58	0.17	3.1	3.37	34B6D8 fully human TIM-3 antibody (human IgG4, kappa) (antibody, V domains shown) VH: EVQLVESGGGLVQPGGSLRLSCAASGFTFSTYWMTWVRQAPGKRLEWVANIKQGGGDKYYVDSVKGRFTISTDNAKNSLYLQMNSLRAEDTAVYYCARGSNWFDPWGQGTLVTVSS VL: EIVMTQSPATLSMSPGERATLSCRASQSVYDNLAWYQQKPGQAPRLLIYGASTRATGIPARFSGSGSGTEFTLTISSLQSEDFALYYCQQYTHWPITFGQGTRLEIK
0.1	0.18	0.17	1.33	0.16	3.01	3.23	39E5H1 fully human TIM-3 antibody (human IgG4, kappa) (antibody, V domains shown) VH: EVQLVESGGGLVQPGGSLRLSCAASGFTFSSYWMSWVRQAPGKGLEWVANIKRGGSERYYVDSVKGRFTISGDNAKNSVYLQMNSLRAEDTAVYYCARGSNWFDPWGQGTLVTVSS VL: ETVMTQSPAILSVSPGERATLSCRASQSVYSNLAWYQQKLGQAPRLLIYDASTRATGIPARFSGSGSGTEFTLTISSLQSEDFAVYYCQQYNNWPITFGQGTRLEIK
